Results as given in patent EP1644414B1 (Crucell Holland B.V., dated 2015).

B1: 03-013 (antibody, V domains shown)
VH: EVQLVESGGGLVQPGGSLRLSCAASGFTFSDHYMDWVRQAPGKGLEWVGRTRNKANSYTTEYAASVKGRFTISRDDSKNSLYLQMNSLKTEDTAVYYCAKGLTPLYFDYWGQGTLVTVSS
VL: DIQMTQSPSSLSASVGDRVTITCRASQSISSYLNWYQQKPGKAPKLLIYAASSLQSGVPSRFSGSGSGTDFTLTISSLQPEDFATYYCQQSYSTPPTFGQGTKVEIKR
B2: 03-014 (antibody, V domains shown)
VH: EVQLVESGGGLVQPGGSLRLSCAASGFTFSDHYMDWVRQAPGKGLEWVGRTRNKANSYTTEYAASVKGRFTISRDDSKNSLYLQMNSLKTEDTAVYYCARGISPFYFDYWGQGTLVTVSS
VL: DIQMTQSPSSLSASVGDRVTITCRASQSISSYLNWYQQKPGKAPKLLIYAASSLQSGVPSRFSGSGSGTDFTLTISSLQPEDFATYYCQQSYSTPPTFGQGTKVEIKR
B3: 03-006 (antibody, V domains shown)
VH: EVQLVESGGGLVQPGGSLRLSCAASGFTFSGYPMHWVRQAPGKGLEWVAVISYDGSNKYYADSVKGRFTISRDNSKNTLYLQMNSLRAEDTAVYYCAKDGSPRTPSFDYWGQGTLVTVSS
VL: DIQMTQSPHSLSASVGDRVTITCRASQGISNYLAWYQQKPGKVPKLLIYAASTLQSGVPSRFSGSGSGTDFTLTISSLQPEDVGVYYCQQRFRTPVTFGQGTKLEIKR
B4: 03-001 (antibody, V domains shown)
VH: EVQLVESGGGLVKPGGSLRLSCAASGFTFSGYSMNWVRQAPGKGLEWVSSISGGSTYYADSRKGRFTISRDNSKNTLYLQMNNLRAEDTAVYYCARHRFRHVFDYWGQGTLVTVSS
VL: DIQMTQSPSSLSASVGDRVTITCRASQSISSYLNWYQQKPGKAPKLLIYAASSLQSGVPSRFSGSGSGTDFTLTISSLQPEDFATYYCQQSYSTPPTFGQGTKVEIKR
B5: 03-015 (antibody, V domains shown)
VH: EVQLVESGGGVVRPGGSLRLSCAASGFTFDDYGMSWVRQAPGKGLEWVSGINWNGGSTGYADSVKGRFTISRDNAKNSLYLQMNSLRAEDTAVYYCARGLSLRPWGQGTLVTVSS
VL: SSELTQDPAESVALGQTVRITCQGDSLRSYYASWYQQKPGQAPVLVIYGKNNRPSGIPDRFSGSSSGNTASLTITGAQAEDEADYYCNSRDSSGNHVVFGGGTKLTVLG
B6: 03-009 (antibody, V domains shown)
VH: EVQLVESGGGVVQPGRSLRLSCAASGFTFSDYPMNWVRQAPGKGLEWVSSISGSGGSTYYADSVKGRFTISRDNSKNTLYLQMNSLRAEDTAVYYCAKGLFMVTTYAFDYWGQGTLVTVSS
VL: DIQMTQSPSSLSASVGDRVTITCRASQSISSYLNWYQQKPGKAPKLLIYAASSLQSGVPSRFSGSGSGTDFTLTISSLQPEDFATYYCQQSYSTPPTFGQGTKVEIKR
B7: 03-002 (antibody, V domains shown)
VH: EVQLVESGGGLVKPGGSLRLSCAASGFTFSGYSMSWVRQAPGKGLEWVGRTRNKANSYTTEYAASVKGRFTISRDDSKNSLYLQMNSLKTEDTAVYYCARYYSRSLKAFDYWGQGTLVTVSS
VL: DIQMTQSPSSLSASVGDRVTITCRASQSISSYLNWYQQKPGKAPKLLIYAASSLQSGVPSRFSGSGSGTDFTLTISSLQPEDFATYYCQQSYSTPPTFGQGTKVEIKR

What was measured:
[1] = target: S565 fragment (amino acids 1-565 of the S protein of SARS-CoV), myc-tagged (SARS-CoV strain Frankfurt 1, UniProt P59594 14-565); assay: IgG ELISA on captured S565
[2] = target: spike protein of SARS-CoV as present in the SARS-CoV preparation (SARS-CoV strain Frankfurt 1, UniProt P59594 14-1255); assay: sandwich ELISA, detection with anti-spike rabbit sera IMG-542 and IMG-557
[3] = target: S318-510 fragment (amino acids 318-510 of the S protein of SARS-CoV strain Frankfurt 1) (SARS-CoV strain Frankfurt 1, UniProt P59594 318-510); assay: IgG ELISA on captured S318-510
[4] = target: full length S protein of SARS-CoV expressed on HEK293T cells (SARS-CoV strain Frankfurt 1, UniProt P59594 14-1255); assay: flow cytometry, IgG 10 µg/ml

Binder	binding result [1]	binding result [2]	binding result [3]	binding result [4]
B1	binds	binds	binds	binds
B2	binds		binds	
B3	binds		binds	binds
B4			no binding	
B5	no binding		no binding	binds
B6			no binding	
B7			no binding	
